Data on two molecules can be found in patent US10100120B2, “Antibody which specifically binds to human CRTH2” (KYOWA HAKKO KIRIN CO., LTD, priority 2015, dated 2018).

One experiment addresses T1, human CRTH2 (Homo sapiens, UniProt Q9Y5Y4).
T1 construct: expressed in transfected cells
T1 sequence (Q9Y5Y4 1-395): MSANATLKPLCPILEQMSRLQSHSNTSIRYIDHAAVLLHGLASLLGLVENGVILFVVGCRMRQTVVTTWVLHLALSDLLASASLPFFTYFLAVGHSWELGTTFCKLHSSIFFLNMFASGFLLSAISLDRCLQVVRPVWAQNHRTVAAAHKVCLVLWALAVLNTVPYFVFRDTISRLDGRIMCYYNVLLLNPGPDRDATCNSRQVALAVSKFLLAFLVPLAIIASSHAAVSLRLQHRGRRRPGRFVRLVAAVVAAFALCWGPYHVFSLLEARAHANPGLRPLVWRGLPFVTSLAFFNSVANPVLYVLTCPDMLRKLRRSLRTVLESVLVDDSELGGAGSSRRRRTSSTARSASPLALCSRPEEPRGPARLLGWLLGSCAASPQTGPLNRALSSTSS
Description: Reactivity in presence of ligand DKPGD2, human CRTH2-expressing 293 EBNA cells. Particulars: DKPGD2 10 μM; antibody 0.3, 1 and 3 μg/mL; relative to absence of DKPGD2; FIG. 13. Type of experiment: binding. Here is the method:
Human CRTH2-expressing 293 EBNA cells were established by introducing the human CRTH2 gene expression pAMoh vector prepared in Example 1-(1)-(ii) into 293 EBNA cells (Invitrogen) using Fugene 6 (Promega Corporation) and selecting drug-resistant cells by culture medium formed of 10% FBS, 0.25 mg/mL of G418 (NACALAI TESQUE, Inc.), […] (NACALAI TESQUE, Inc.), and 300 μg/mL of hygromycin B (Wako Pure Chemical Industries) in DMEM.
The human CRTH2-expressing 293 EBNA cells were peeled using 0.02% EDTA solution (NACALAI TESQUE, Inc.), washed with PBS, and suspended with the above-described culture medium. […]
After the cells were washed 5 times with SM, 10 μg/mL of goat anti-Human IgG Alexa 647 (Molecular Probes) diluted with SM was added to wells to which LV0HV1, hu19A2 v52, hu8B1 v1, ch3C12, or ch31A5 was added, 10 μg/mL of goat anti-Rat IgG Alexa 647 (Molecular Probes) diluted with SM was added to wells to which BM16 was added, and 10 μg/mL of goat anti-Mouse IgG Alexa 647 (Molecular Probes) diluted with SM was added to wells to which 301108 was added at a final concentration of 10 μg/mL to cause a reaction at 4° C. for 40 minutes. After the cells were washed again, the cells were suspended with SM, and the fluorescent intensity was analyzed by flow cytometry (BD Biosciences, FACS CantoII).

Another experiment concerns human eosinophils. Put plainly: Reactivity against human eosinophils, flow cytometry. It counts as binding. Particulars: 0.12-10 μg/mL, 4° C., 1 hour; FIG. 8. Here is the method: To human peripheral blood collected by adding a heparin sodium injection liquid, the same amount of physiological saline for injection as the human peripheral blood was added thereto and mixed with each other. 15 mL of Ficoll-Paque PREMIUM 1.084 (GE Healthcare) was added to a 50 mL centrifuge tube, 30 mL of the above described human peripheral blood diluted with physiological saline was overlaid thereon, and centrifugation was performed at room temperature and 1500 rpm for 30 minutes. […]
After the number of cells was counted, eosinophils were isolated by a negative selection method using CD16 MicroBeads, human (Miltenyi Biotec) according to the attached instructions. […]
After the cells were washed, CELL LAB Mouse Anti-Rat Kappa (kappa light chain specific) FITC (Beckman Coulter Inc.) diluted with SM was added to wells to which Lym2 antibody or BM16 was added and CELL LAB Goat Anti-Mouse IgG (γ chain specific) Fluorescein (FITC) Conjugate (Beckman Coulter Inc.) diluted with SM was added to wells to which 301108 was added at a final concentration of 10 μg/mL respectively to cause a reaction at 4° C. for 1 hour. The cells were washed again and suspended with SM, and the fluorescent intensity was analyzed by flow cytometry (BD Biosciences, FACS CantoII).

Residue numbers refer to the chain shown, from its start.

B1: LV0HV1: humanized Lym2 antibody, VL LV0 (SEQ ID NO: 33), VH HV1 (SEQ ID NO: 51) (antibody, V domains shown)
VH: EVQLVESGGGVVQPGRSLRLSCAASGFTFSNYYMAWVRQAPGKGLEWVATISYDGSSTYYRDSVKGRFTISRDNAKNSLYLQMNSLRAEDTATYYCARHRGYYYSGAGYFDYWGQGTMVTVSS
VL: DIVMTQTPLSLPVTPGESASISCRSSQSLEYSDGYTYLEWYLQKPGQSPQVLIYGVSNRFSGVPDRFSGSGSGTDFTLKISRVEAEDVGVYYCFQATHDPLTFGQGTKLEIK
Consider B1, for which the “binding to human CRTH2-expressing cells in the presence of DKPGD2” value with human CRTH2 is “almost not decreased”.

B2: Lym2 antibody: rat anti-human CRTH2 monoclonal antibody from hybridoma Lym2, rat IgG2b; VH SEQ ID NO: 17, VL SEQ ID NO: 19 (antibody, listed as Rattus norvegicus, V domains shown)
VH: B1 VH with V11L, L18M, R19K, G42K, N77S, S78T, N84D, A88S, T117V
VL: DVVLTQTPVSLSVTLGDQASISCRSSQSLEYSDGYTYLEWYLQKPGQSPQVLIYGVSNRFSGVPDRFIGSGSGTDFTLKISRVEPEDLGVYYCFQATHDPLTFGSGTKLEIK
Take B2: the “reactivity against human eosinophils” value with human eosinophils was “stronger reactivity”.
